In the assay the target is T1, NaV1.5 ΔKPQ mutant (Homo sapiens, UniProt Q14524, DEL1505-1507).
T1 construct: expressed in transfected cells; host or cells: HEK293 (ATCC CRL1573)
Briefly: Multichannel recordings of late Na current, NaV1.5 ΔKPQ mutant in HEK293 cells. It is filed as cell-based. The text has this:
The human NaV1.5 channel corresponds to clone M77235.1 (GenBank) and is subcloned into pGW 1 vector with HindIII and SaII. To facilitate construction of channelopathic mutations in the channel carboxy-terminus, we introduced silent mutations into NaV1.5 to introduce an NruI cutting site near the channel carboxy-terminus (5329-gtggccacg-5337 into 5329-gtCgcGacg-5337). Subsequently, we used overlap-extension PCR and ligated the PCR product into NaV1.5/pGW1 using NruI and XbaI restriction sites (mutations: E1784K, S1904L, IQ/AA, and Q1909R). For generating the ΔKPQ and IFM/IQM mutations, we used overlap-extension PCR and ligated in NaV1.5/pGW1 following restriction digest using KpnI and XbaI site. For generation of NaV1.5 truncations, we PCR amplified relevant segments using a forward primer upstream of the KpnI site and a reverse primer that truncated at the appropriate location (Δ1810 and Δ1885) and included an XbaI site and ligated into NaV1.5/pW1 vector. For LILA/WICW mutations, we used overlap extension and used restriction site AgeI and NheI for subsequent ligation. All segments subjected to PCR amplification were verified by sequencing. For generating human FHF2 splice-variants, we synthesized gene fragments and ligated into pcDNA3 using BamHI/EcoRI restriction sites. Human FHF1A and FHF1B were subcloned into ECFP-N3 vector, FHF2 splice variants and FHF3 were subcloned into pcDNA3. […]

For “FixR-cpp: FixR fused to HIV-1 TAT transduction domain, YGRKKRRQRRRAAAIASSLIRQKRQARESNSERVSASKRRSSPSKG (SEQ ID NO: 2)”, the “change in INa,L” value (2-hour incubation with 10 μM FixR-cpp) is “diminished INa,L”.

As for “FixR: minimal 39-amino-acid FHF1A amino-terminal effector domain, MAAAIASSLIRQKRQARESNSDRVSASKRRSSPSKDGRS (SEQ ID NO: 4), expressed as peptide”, where the note is “co-expression with NaV1.5 ΔKPQ in HEK293 cells”, the “change in INa,L” value is “inhibits INa,L”.
